# Results reported in patent publication US20230049152A1 (Genentech, published 2023).
# Positions count from the first letter of the chain named.
# T1: D14A
# T1 construct: single alanine mutant of hCCR8; also called hCCR8 D14A
# T1 receptor chain: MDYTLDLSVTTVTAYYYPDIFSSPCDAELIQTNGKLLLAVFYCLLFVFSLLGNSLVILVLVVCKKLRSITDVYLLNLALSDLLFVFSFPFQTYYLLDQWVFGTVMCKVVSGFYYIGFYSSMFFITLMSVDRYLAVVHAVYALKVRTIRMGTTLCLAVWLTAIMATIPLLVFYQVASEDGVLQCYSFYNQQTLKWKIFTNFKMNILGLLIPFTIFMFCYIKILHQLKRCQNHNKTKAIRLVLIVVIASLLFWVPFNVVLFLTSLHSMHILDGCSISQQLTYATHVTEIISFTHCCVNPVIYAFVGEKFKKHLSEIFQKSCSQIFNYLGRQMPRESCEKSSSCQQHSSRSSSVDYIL
# T2: D19A
# T2 construct: single alanine mutant of hCCR8; also called hCCR8 D19A
# T2 receptor chain: T1 receptor chain with A14D, D19A
# T3: P24A
# T3 construct: single alanine mutant of hCCR8; also called hCCR8 P24A
# T3 receptor chain: T1 receptor chain with A14D, P24A
# B1: hu.Ab4.H1L1 (antibody, human IgG1, kappa)
# heavy: not shown
# light: DYQMTQSPSSLSASVGDRVTITCQASQSISSYLSWYQQKPGKRPKLLIYKASTLASGVPSRFSGSGSGTDFTLTISSLQPEDFATYYCQQGYTSSNIDNIFGGGTKVEIKRTVAAPSVFIFPPSDEQLKSGTASVVCLLNNFYPREAKVQWKVDNALQSGNSQESVTEQDSKDSTYSLSSTLTLSKADYEKHKVYACEVTHQGLSSPVTKSFNRGEC
# notes: also called hu.Ab4.H1Ll
# B2: hu.Ab4.H12L3 (antibody, human IgG1, kappa)
# heavy: not shown
# light: B1 light with R43A
# notes: fucosylated human IgG1; also called huCCR8-Ab4.H12L3.hIgG1; Ab4 variant
# B3: hu.Ab5.H1L1 (antibody, human IgG1, kappa)
# heavy: not shown
# light: DIQVTQSPSSLSASVGDRVTITCQASENIANALAWYQQKPGKPPKFLIYGASNLASGVPSRFSGSGSGTDFTFTISSLQPEDIATYYCQQAYYGNSFVEGTFGGGTKVEIKRTVAAPSVFIFPPSDEQLKSGTASVVCLLNNFYPREAKVQWKVDNALQSGNSQESVTEQDSKDSTYSLSSTLTLSKADYEKHKVYACEVTHQGLSSPVTKSFNRGEC
# B4: hu.Ab5.H13L1 (antibody, human IgG1, kappa)
# heavy: not shown
# light: B3 light
# notes: fucosylated human IgG1; also called Ab5 variant
# How the values were obtained:
# human CCR8 [1] = target: T4, human CCR8 (human, UniProt P51685 1-355); assay: flow cytometry, 2 ug/mL mAb, Treg cells of human colorectal dissociated tumor cells
# T4 construct: the assay field says which; also called hCCR8; huCCR8
# Procedure: The mAbs were evaluated for binding to regulatory T cells (Treg cells or Tregs) by Fluorescence-Activated Cell Sorting (FACS) flow cytometry. Human colorectal dissociated tumor cells (DTC) (Discovery Life Sciences) were thawed according to vendor's protocol. Cells were surface stained with eFluor 780-conjugated Fixable Viability Dye (ThermoFisher Scientific) and 2 ug/mL mAb specific for CCR8, OX40 (positive control), Herceptin (negative control), or anti-hIgG (negative control) for 20 min at 4° C. followed by secondary detection with AF647-conjugated AffiniPure F(ab′)2 Fragment Goat anti-Human IgG, Fcg fragment-specific (Jackson ImmunoResearch) for 10 min at 4° C. Cells were then intracellularly stained using the eBioscience Foxp3/Transcription Factor Staining Buffer Set (ThermoFisher Scientific) according to the manufacturer's protocol. […] Shown in FIG. 1 are mean fluorescent intensity (MFI) values for CD8 T cells (defined as CD45+CD14−CD3+CD8+CD4−) (circles, ◯), conventional CD4 T cells (defined as CD45+CD14−CD3+CD8−CD4+FOXP3−) (squares, □), and Treg cells (defined as CD45+CD14−CD3+CD8−CD4+FOXP3+) (triangles, ▴). Three of the five CCR8 mAb clones specifically stained Treg cells and not conventional CD4 or CD8 T cells and were ranked according to CCR8 MFI, greater than 500 MFI: hu.Ab4.H1L1>hu.Ab5.H1L1>hu.Ab3.H1L1. Upon confirmation that these three CCR8 mAb clones, namely, hu.Ab3.H1L1, hu.Ab4.H1L1, and hu.Ab5.H1L1, also retained human-cyno cross-reactivity (differences less than 5-fold on human and cyno CCR8 CHO cells), these antibodies carried forward for further exploration.
# human CCR8 [2] = target: T4, human CCR8; assay: radioligand competition on CHO cells stably expressing human CCR8: fixed 125I-anti-CCR8 against serially diluted unlabelled antibody
# Procedure: Cell-based affinity measurements were performed using radiolabeled IgGs and CHO cell lines stably expressing human or cyno CCR8 for hu.Ab5.H13L1 and hu.Ab4.H12L3.
# Briefly, stable CHO cells expressing human or cyno CCR8 were seeded in cold binding buffer (Opti-MEM+2% FBS+50 mM HEPES, pH 7.2+0.1% Sodium Azide) at 50,000 cells per well. A fixed concentration of ¹²⁵I-anti-CCR8 radiolabeled using the NEX244 Iodogen method (Perkin Elmer) was mixed with serially diluted anti-CCR8 antibodies starting at 20 nM or 50 nM. The antibody mixture was added to the cells and incubated at room temperature for 12 hours under gentle agitation. The cells and antibodies were then transferred to Millipore multiscreen filter plates. The filter plates were washed 4 times with 250 μL of cold binding buffer and dried for at least 30 minutes and the filters were punched into 5 mL polystyrene tubes. The radioactivity was measured using a Perkin Elmer Wallac Wizard 2470 Gamma Counter set at 1 count per minute with 0.8 counting efficiency. The data were fitted using the heterologous one site-fit Ki competitive binding model in GraphPad Prism.
# hCCR8 D6A = target: T5, hCCR8 D6A (human, UniProt P51685 1-355); assay: flow cytometry, HEK293 transfected with hCCR8 D6A with C-terminal FLAG
# T5 construct: alanine point mutant on transfected HEK 293 cells
# D14A = target: T1, D14A; assay: flow cytometry, HEK293 transfected with hCCR8 D14A with C-terminal FLAG; sheet prints [huCCR8]=0.02 ug/ml
# D19A = target: T2, D19A; assay: flow cytometry, HEK293 transfected with hCCR8 D19A with C-terminal FLAG; sheet prints [huCCR8]=0.02 ug/ml
# Procedure: FIGS. 16A-16B depict the epitope maps for hu.Ab5.H13L1 (FIG. 16A) and hu.Ab4.H12L3 (FIG. 16B) mAbs.
# To epitope map fucosylated hu.Ab5.H13L1, the binding to alanine point mutations in human CCR8 was analyzed by flow cytometry.
# P24A = target: T3, P24A; assay: flow cytometry, HEK293 transfected with hCCR8 P24A with C-terminal FLAG; sheet prints [huCCR8]=0.02 ug/ml
Binder,MFI (human CCR8 [1]),IC50 (read off the curve) (human CCR8 [2]),other results
B1,> 500 MFI,–,–
B2,–,~0.1 nM,–
B3,> 500 MFI,–,–
B4,–,~0.05 nM,binding result (hCCR8 D6A): no binding (tested: 0.02 ug/ml); binding result (D14A): binds; binding result (D19A): binds; binding result (P24A): binds
